Positions count from the first letter of the chain named. In names and notes the source's numbering stands. Several values for one entry are separate records, joined by “and”; a condition that tells them apart may be missing. Identical values can stand only once.

The target of data set [1] is stefin B-Y31 P79S mutant (human) (UniProt P04080). Put plainly: SEC; Y31 variant and its mutants; conditions not told for this experiment.
Data set [2] has as its system P04080. The description is as above.
Data set [3] has as its target P04080. Put plainly: SEC; Superdex 75 FPLC column, 0.5 mL/min, typically 100 uL of 50 uM protein, 10 mM potassium phosphate pH 7.0, 0.15 M NaCl; samples frozen and unfrozen once; percentages estimated from the surface area of the peaks.
Data set [4] deals with the molecule itself. Described as above.
Data set [5] deals with the molecule itself. The data set can be described thus: SEC; Y31 variant and its mutants; conditions not told for this experiment. (Size exclusion chromatography separates by hydrodynamic size, large species first.)
Data set [6] has as its target P04080. Described as above. The source holds these as a separate data set.

Usually stoichiometry N stands for the number of molecules, sites or subunits per partner or assembly. Take “stefin B-Y31 P79S mutant (from UniProt P04080 4-98) (natural protein)”: in data set [1], the stoichiometry N turned out to be 2.

For stefin B-Y31 P79S mutant, the “percent dimers (SEC)” value in the data set on P04080 [2] is given as 100% were dimeric.

B1: stefin B P79S mutant (of the wt C3S E31-stefin B) (natural protein, human, UniProt P04080 1-98, looked up)
chain: MMSGAPSATQPATAETQHIADQVRSQLEEKENKKFPVFKAVSFKSQVVAGTNYFIKVHVGDEDFVHLRVFQSLPHENKSLTLSNYQTNKAKHDELTYF
notes: human stefin B (cystatin B), 98 amino acids, E31 variant, C3S, with P79S
Consider B1, for which, in the data set with P04080 [3], the “percent dimers (SEC peak area)” value is on record as 55% dimers, the “percent higher molecular weight species (SEC peak area)” value is on record as 15% of higher molecular weight species and the “percent tetramers (SEC peak area)” value is given as “around 30% tetramers”. The “stoichiometry N” value in data set [4] is 4 and 2.

B2: stefin B-Y31 P36G mutant (natural protein, human, UniProt P04080 1-98, looked up)
chain: B1 chain with E31Y, P36G, S79P
notes: human stefin B (cystatin B), 98 amino acids, variant with Y at site 31, with P36G; Cys 3 changed to Ser 'for all in vitro studies'
Consider B2, for which the “stoichiometry N” value in data set [5] is 2. Also, the “percent monomers (SEC)” value with P04080 [6] is 70% and 75% of molecules were monomers, respectively and the rest were dimers.

B3: stefin B P11S mutant (of the wt C3S E31-stefin B) (natural protein, human, UniProt P04080 1-98, looked up)
chain: B1 chain with P11S, S79P
notes: human stefin B (cystatin B), 98 amino acids, E31 variant, C3S, with P11S
Turning to B3, the binding result in data set [4] was “binds”.

B4: stefin B-Y31 variant (with Y at site 31) (natural protein, human, UniProt P04080 1-98, looked up)
chain: B1 chain with E31Y, S79P
notes: human stefin B (cystatin B), 98 amino acids, variant with Y at site 31; Cys 3 changed to Ser 'for all in vitro studies'
For B4, in data set [5], the “stoichiometry N” value was 2. Further, the “percent monomers (SEC)” value in the data set with P04080 [6] was 70% and 75% of molecules were monomers, respectively and the rest were dimers.

B5: stefin B P74S mutant (of the wt C3S E31-stefin B) (protein)
chain: B1 chain with P74S, S79P
As to B5, the “percent oligomers (SEC)” value with P04080 [3] is “The tendency to form oligomers is high for the P74S mutant of the wt (>50%)”.

B6: wild-type like C3S E31-stefin B (human) (natural protein, UniProt P04080 1-98, looked up)
chain: B1 chain with S79P
notes: human stefin B (cystatin B), 98 amino acids, E31 variant, Cys 3 changed to Ser; also called wt stefin B; wt
On to B6, for which, in the data set with P04080 [3], the “percent dimers (SEC peak area)” value is on record as 65% dimers, the “percent higher oligomers (SEC peak area)” value is on record as 10% of higher oligomers, the “percent monomers (SEC peak area)” value is listed as 5% monomers and the “percent tetramers (SEC peak area)” value is on record as 20% tetramers. Moreover, in data set [4], the “stoichiometry N” value is 2 and 4.

B7: stefin B P36D mutant (of the wt C3S E31-stefin B) (natural protein, human, UniProt P04080 1-98, looked up)
chain: B1 chain with P36D, S79P
notes: human stefin B (cystatin B), 98 amino acids, E31 variant, C3S, with P36D
With B7, in data set [4], the “stoichiometry N” value was 2 and 4.

B8: stefin B P6L mutant (of the wt C3S E31-stefin B) (natural protein, human, UniProt P04080 1-98, looked up)
chain: B1 chain with P6L, S79P
notes: human stefin B (cystatin B), 98 amino acids, E31 variant, C3S, with P6L
B8: in data set [4], the binding result is given as “binds”.

The values are drawn from paper PMC5372565, “Proline Residues as Switches in Conformational Changes Leading to Amyloid Fibril Formation” (International Journal of Molecular Sciences, 2017).
